Tested on: fragments of sample DNA (genomic DNA of TA100 strain)
Test: Error reduction by single-strand-specific nuclease treatment of DNA fragments (DMSO-exposed library)
Assay type: biochemical, Salmonella typhimurium
Experimental: From DNA derived from the DMSO-exposed cells or the 3-MC-exposed cells, a plurality of samples each of which was to give 60 ng or 100 ng of DNA were prepared, and the samples were each fragmented into pieces having a length of approximately 350 bp on average by using a DNA Shearing System ME220. The fragments of each sample were divided into two groups. For the group without nuclease treatment (nontreatment group), the DNA fragments were suspended in Resuspension buffer attached to the TruSeq for End Repair in the subsequent step in accordance with the recommended protocol to afford 60 μL of eluate. For the group with nuclease treatment (treatment group), the DNA fragments were purified through steps of adsorbing on Sample Purification Beads attached to the TruSeq (hereinafter, also expressed as beads, simply), washing twice with 80% ethanol water, and drying in accordance with the recommended protocol. In the subsequent elution operation, the beads were suspended in distilled water (DW, produced by NIPPON GENE CO., LTD.) to afford 30 μL of DNA eluate containing DNA fragments.
S1 nuclease (Promega Corporation, catalog No.: M5761), Mung Bean Nuclease (MBN) (Takara Bio Inc., catalog No.: 2420A), or RecJf (New England Biolabs, catalog No.: M0264L) was used as the single-strand-specific nuclease. The activity values (numbers of units) of the enzymes were defined as follows. • S1 nuclease: an enzymatic activity such that 1 μg of acid-soluble substance is generated per minute at 37° C. in a mixed solution of 30 mM sodium acetate (pH 4.6, 25° C.), 50 mM NaCl, 1 mM ZnCl2, 5% glycerol, and 0.5 mg/mL denatured calf thymus DNA was defined as 1 U. • MBN: an enzymatic activity such that 1 μg of acid-soluble decomposition product is generated per minute at 37° C. and pH 5.0 with thermally denatured calf thymus DNA as a substrate was defined as 1 U. • RecJf: an amount of the enzyme necessary for generating 0.5 ng of deoxyribonucleotide soluble in trichloroacetic acid per minute at 37° C. in 50 μL of whole reaction solution (containing 1×NE Buffer 2 and 1.5 μg of sonicated [^3H]-labeled single-stranded E. coli DNA) was defined as 1 U.
To the DNA eluate obtained in I), 4 μL of 10× Reaction Buffer attached to the S1 nuclease was added. The S1 nuclease was appropriately diluted with 1× Reaction Buffer, 1, 3, 10, 30, 100, or 300 U thereof was added to the DNA eluate, and DW was added thereto to a total volume of 40 μL. For the sample to which 1000 U of the S1 nuclease was to be added, 4.6 μL of 10× Reaction Buffer was added to 30 μL of the DNA eluate obtained by beads purification, and 12 μL of the stock solution of the S1 nuclease was added thereto to a total volume of 46 μL. Each reaction solution with the S1 nuclease was incubated at 30° C. for 30 minutes. Assuming that the whole amount of DNA (60 ng) present at the beginning of library preparation existed in each reaction solution, the numbers of units of the S1 nuclease per 1 ng of DNA were 0.02, 0.05, 0.17, 0.50, 1.67, 5.00, and 16.7 U/ng. For inactivation of the S1 nuclease in each reaction solution, 3 μL of 0.5 M EDTA (pH 8.0) (produced by NIPPON GENE CO., LTD.) was added, and the resultant was incubated at 70° C. for 10 minutes. To purify DNA from the inactivated reaction solution, beads attached to the TruSeq in an amount equal to that of the reaction solution were added and a purification operation was carried out in accordance with the recommended protocol, and the resultant was suspended in Resuspension buffer attached to the TruSeq to afford 60 μL of eluate (S1 nuclease treatment group). […]
To the DNA eluate obtained in I), 5 μL of 10×NE Buffer 2 attached to the RecJf was added. The RecJf was appropriately diluted with 1×NE Buffer 2, and 3, 10, 30, or 100 units thereof was added to the DNA eluate to a total volume of 50 μL. Each reaction solution with the RecJf was stirred, and incubated at 37° C. for 60 minutes. […]

B1: S1 nuclease: single-strand-specific endonuclease (Promega Corporation, catalog No.: M5761) (protein, UniProt P24021 21-287, looked up)
Nuclease S1: WGNLGHETVAYIAQSFVASSTESFCQNILGDDSTSYLANVATWADTYKYTDAGEFSKPYHFIDAQDNPPQSCGVDYDRDCGSAGCSISAIQNYTNILLESPNGSEALNALKFVVHIIGDIHQPLHDENLEAGGNGIDVTYDGETTNLHHIWDTNMPEEAAGGYSLSVAKTYADLLTERIKTGTYSSKKDSWTDGIDIKDPVSTSMIWAADANTYVCSTVLDDGLAYINSTDLSGEYYDKSQPVFEELIAKAGYRLAAWLDLIASQPS
With B1 the “Error reduction rate, GC to CG” value (S1 nuclease 0.02 U/ng) was 30.4%, the “Error reduction rate, GC to TA” value (S1 nuclease 0.02 U/ng DNA in reaction solution) was 52.8% and the “Error reduction rate, GC to CG” value (S1 nuclease 0.05 U/ng) was 50.6%. The “Error reduction rate, GC to TA” value (S1 nuclease 0.05 U/ng) was 35.3%, the “Error reduction rate, GC to CG” value (S1 nuclease 0.17 U/ng) was 84.9% and the “Error reduction rate, GC to TA” value (S1 nuclease 0.17 U/ng) was 83.1%. The “Error reduction rate, GC to CG” value (S1 nuclease 0.50 U/ng) was 87.5%, the “Error reduction rate, GC to TA” value (S1 nuclease 0.50 U/ng) was 69.9% and the “Error reduction rate, GC to CG” value (S1 nuclease 1.67 U/ng) was 86.0%. The “Error reduction rate, GC to TA” value (S1 nuclease 1.67 U/ng) was 81.7%, the “Error reduction rate, GC to CG” value (S1 nuclease 5.00 U/ng) was 98.3% and the “Error reduction rate, GC to TA” value (S1 nuclease 5.00 U/ng) was 84.5%. For the same molecule, the “Error reduction rate, GC to CG” value (S1 nuclease 16.7 U/ng) was 98.1% and the “Error reduction rate, GC to TA” value (S1 nuclease 16.7 U/ng) was 79.6%.

Reference: patent US20220396825A1, “METHOD FOR PREPARING […]” (KAO CORPORATION, priority 2019, published 2022)
